According to patent US20030028009A1:

Biological target: integrin αvβ3 expressed on cells (human) (UniProt P06756)
Assay: cell-based or functional assay

integrin αvβ3 expressed on cells (human), sequence (P06756 31-1048, chain 1 of 2): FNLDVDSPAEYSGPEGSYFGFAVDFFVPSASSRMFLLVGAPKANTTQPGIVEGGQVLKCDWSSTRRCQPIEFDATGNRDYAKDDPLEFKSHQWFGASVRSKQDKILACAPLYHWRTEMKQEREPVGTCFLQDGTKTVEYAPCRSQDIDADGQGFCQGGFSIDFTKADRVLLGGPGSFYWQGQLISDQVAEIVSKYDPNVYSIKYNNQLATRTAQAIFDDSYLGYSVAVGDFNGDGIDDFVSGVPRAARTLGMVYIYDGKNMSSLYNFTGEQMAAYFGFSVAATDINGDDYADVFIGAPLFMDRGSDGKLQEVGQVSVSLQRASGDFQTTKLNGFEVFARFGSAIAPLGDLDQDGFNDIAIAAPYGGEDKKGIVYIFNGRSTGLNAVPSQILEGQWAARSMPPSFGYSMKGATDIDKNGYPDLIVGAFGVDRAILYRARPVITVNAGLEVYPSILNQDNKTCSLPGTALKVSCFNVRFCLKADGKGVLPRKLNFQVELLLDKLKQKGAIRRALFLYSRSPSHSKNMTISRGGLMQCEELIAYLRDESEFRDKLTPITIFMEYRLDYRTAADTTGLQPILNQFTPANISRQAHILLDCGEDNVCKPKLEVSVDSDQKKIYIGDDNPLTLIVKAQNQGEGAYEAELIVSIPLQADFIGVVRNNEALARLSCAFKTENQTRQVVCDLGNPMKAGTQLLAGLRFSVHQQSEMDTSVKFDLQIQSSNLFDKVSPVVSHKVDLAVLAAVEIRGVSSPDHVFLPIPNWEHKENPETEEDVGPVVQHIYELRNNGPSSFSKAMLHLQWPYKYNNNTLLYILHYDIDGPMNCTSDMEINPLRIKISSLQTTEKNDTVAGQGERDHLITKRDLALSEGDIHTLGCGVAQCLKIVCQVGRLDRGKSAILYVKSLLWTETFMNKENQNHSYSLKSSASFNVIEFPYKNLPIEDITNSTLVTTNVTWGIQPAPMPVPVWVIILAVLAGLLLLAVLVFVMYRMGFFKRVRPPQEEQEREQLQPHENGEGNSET
integrin αvβ3 expressed on cells (human), sequence (P05106 27-788, chain 2 of 2, further chain): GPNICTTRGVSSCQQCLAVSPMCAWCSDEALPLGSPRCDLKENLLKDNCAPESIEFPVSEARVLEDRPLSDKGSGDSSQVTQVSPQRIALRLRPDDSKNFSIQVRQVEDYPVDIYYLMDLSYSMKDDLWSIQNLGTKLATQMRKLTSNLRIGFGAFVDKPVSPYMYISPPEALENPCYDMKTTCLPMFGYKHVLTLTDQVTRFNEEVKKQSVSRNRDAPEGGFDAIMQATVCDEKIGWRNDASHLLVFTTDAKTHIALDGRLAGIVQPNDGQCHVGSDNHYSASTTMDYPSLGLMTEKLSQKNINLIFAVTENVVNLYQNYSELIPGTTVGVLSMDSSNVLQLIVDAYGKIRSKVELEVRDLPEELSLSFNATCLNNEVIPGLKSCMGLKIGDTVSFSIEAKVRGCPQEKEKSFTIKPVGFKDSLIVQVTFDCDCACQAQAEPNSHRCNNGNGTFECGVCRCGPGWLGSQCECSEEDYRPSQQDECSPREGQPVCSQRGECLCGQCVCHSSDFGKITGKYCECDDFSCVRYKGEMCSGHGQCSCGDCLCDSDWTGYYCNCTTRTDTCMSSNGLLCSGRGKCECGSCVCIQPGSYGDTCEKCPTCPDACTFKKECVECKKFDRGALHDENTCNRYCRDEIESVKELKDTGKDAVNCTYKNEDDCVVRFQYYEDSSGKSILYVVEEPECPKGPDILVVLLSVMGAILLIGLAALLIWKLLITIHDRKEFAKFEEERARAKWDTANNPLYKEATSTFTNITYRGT

An inhibition of vitronectin-induced migration of endothelial cells (transwell) of 60% and an inhibitory concentration for 50% maximal adhesion (M21 cell adhesion to fibrinogen) of 50 ng/mL were found for monoclonal antibody LM609 (murine IgG) in this work.
